The target of this test is T1, LMP1 (Epstein-Barr virus) peptide on HLA-A*02:01 (human).
T1 peptide: YLLEMLWRL
In words: multimer staining.

B1: T cell receptor LMP1-TCR2 (TCR, V domains shown)
Valpha: AQKITQTQPGMFVQEKEAVTLDCTYDTSDPSYGLFWYKQPSSGEMIFLIYQGSYDQQNATEGRYSLNFQKARKSANLVISASQLGDSAMYFCAMREVALNAGGTSYGKLTFGQGTILTVHP
Vbeta: GAVVSQHPSWVICKSGTSVKIECRSLDFQATTMFWYRQFPKQSLMLMATSNEGSKATYEQGVEKDKFLINHASLTLSTLTVTSAHPEDSSFYICSASGAQPDDPQHFGDGTRLSIL
For the molecule B1, the binding result was “recognises”.

B2: T cell receptor LMP1-TCR1 (TCR, V domains shown)
Valpha: AQSVSQHNHHVILSEAASLELGCNYSYGGTVNLFWYVQYPGQHLQLLLKYFSGDPLVKGIKGFEAEFIKSKFSFNLRKPSVQWSDTAEYFCALPRWDGGYNKLIFGAGTRLAVHP
Vbeta: DTEVTQTPKHLVMGMTNKKSLKCEQHMGHRAMYWYKQKAKKPPELMFVYSYEKLSINESVPSRFSPECPNSSLLNLHLHALQPEDSALYLCASSQEGTGELFFGEGSRLTVL
As to B2, the binding result is recorded as “recognises”.
